PMC5487423, “Yeast surface display identifies a family of evasins from ticks with novel polyvalent CC chemokine-binding activities” (Scientific Reports, 2017)

T1: P991_AMBCA, purified, C-terminal StrepII-8xHis tag (Amblyomma cajennense, UniProt A0A023FFD0 29-136)
T1 sequence: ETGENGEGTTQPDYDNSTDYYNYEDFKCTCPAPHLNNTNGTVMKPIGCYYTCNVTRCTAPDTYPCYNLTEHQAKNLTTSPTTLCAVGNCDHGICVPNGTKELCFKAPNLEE

T2: P467_RHIPU, purified, C-terminal StrepII-8xHis tag (Rhipicephalus pulchellus, UniProt L7M8Z8 22-127)
T2 sequence: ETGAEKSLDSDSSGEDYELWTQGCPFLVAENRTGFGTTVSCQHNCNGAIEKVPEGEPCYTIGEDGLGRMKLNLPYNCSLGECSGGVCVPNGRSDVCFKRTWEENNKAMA

B1: CCL5 (ligand, human, UniProt P13501 24-91, looked up)
chain: SPYSSDTTPCCFAYIARPLPRAHIKEYFYTSGKCSNPAVVFVTRKNRQVCANPEKKWVREYINSLEMS
notes: source: bought: Peprotech
B2: CCL7 (ligand)
chain: not shown
notes: source: bought: Peprotech
B3: CCL18 (ligand, human, UniProt P55774 21-89, looked up)
chain: AQVGTNKELCCLVYTSWQIPQKFIVDYSETSPQCPKPGVILLTKRGRQICADPNKKWVQKYISDLKLNA
notes: source: bought: Peprotech
B4: CCL1 (ligand, human, UniProt P22362 24-96, looked up)
chain: KSMQVPFSRCCFSFAEQEIPLRAILCYRNTSSICSNEGLIFKLKRGKEACALDTVGWVQRHRKMLRHCPSKRK
notes: source: bought: Peprotech
B5: CCL8 (ligand, human, UniProt P80075 24-99, looked up)
chain: QPDSVSIPITCCFNVINRKIPIQRLESYTRITNIQCPKEAVIFKTKRGKEVCADPKERWVRDSMKHLDQIFQNLKP
notes: source: bought: Peprotech
B6: CCL11 (ligand)
chain: not shown
notes: source: bought: Peprotech
B7: CCL3 (ligand, human, UniProt P10147 24-92, looked up)
chain: SLAADTPTACCFSYTSRQIPQNFIADYFETSSQCSKPGVIFLTKRSRQVCADPSEEWVQKYVSDLELSA
notes: source: bought: Peprotech

Each binder was assayed against T1, P991_AMBCA, purified, C-terminal … (assay: BLI; Kd and koff determination: His-tagged evasin immobilised on Ni-NTA biosensor (OctetRed), chemokine dilutions from 300 nM to 0.4 nM, 30 °C, same buffer as the screen; reference protein subtracted; 1:1 model with global fit, or steady state; each experiment once). Conditions: both partners purified.
B1: binds. With B2 the dissociation half-life was 2.4 h. B3: binds.

These binders were tested against T2, P467_RHIPU, purified, C-terminal … in the same assay as above. Conditions: both partners purified.
B1: binds. B4: binds. B5: binds. B6: binds. B7: binds. B3: binds.
